Experimental data from the supplement of paper PMC5998384.

What was measured:
[1] = test system: HeLa Kyoto; test: solubility in G1/S (NP-40 vs SDS abundance) (log2 ratio); higher = more soluble; conditions: cell cycle stage: G1/S
[2] = test system: HeLa Kyoto; test: solubility change mitosis vs G1/S (difference of NP-40 vs SDS log2 ratios) (log2 ratio difference); higher = more soluble in mitosis
[3] = test system: HeLa Kyoto; test: melting temperature (median over replicates), in situ; higher = more thermally stable
[4] = test system: HeLa Kyoto; test: thermal stability score vs G1/S (z-score of summed log2 fold changes over temperatures); higher = more thermally stable than in G1/S
[5] = cell cycle stage: early G1 (4.5 h after nocodazole release)
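Throughout, for melting temperature (median over replicates), in situ: HeLa Kyoto cells synchronized by double thymidine or nocodazole block, proteins quantified by TMT10plex mass spectrometry, three independent biological replicates.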
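Throughout, for solubility change mitosis vs G1/S (difference of NP-40 vs SDS log2 ratios): synchronized HeLa Kyoto cells (double thymidine block for G1/S, nocodazole release for mitosis), protein amounts in NP-40 versus SDS lysates quantified by mass spectrometry, three biological replicates.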
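Throughout, for solubility in G1/S (NP-40 vs SDS abundance): HeLa Kyoto cells arrested at G1/S by double thymidine block, proteins quantified by TMT10plex mass spectrometry in mild NP-40 versus SDS extracts, three biological replicates.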
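Throughout, for thermal stability score vs G1/S (z-score of summed log2 fold changes over temperatures): synchronized HeLa Kyoto cells, proteins quantified by TMT10plex mass spectrometry, three biological replicates, mitosis taken 0.5 h after nocodazole release, G1/S directly after double thymidine block.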

Question: For “MAGGEDRGDGEPVSVVTVRVQYLEDTDPFACANFPEPRRAPTCSLDGALPLGAQIPAVHRLLGAPLKLEDCALQVSPSGYYLDTELSLEEQREMLEGFYEEISKGRKPTLILRTQLSVRVNAILEKLYSSSGPELRRSLFSLKQIFQEDKDLVPEFVHSEGLSCLIRVGAAADHNYQSYILRALGQLMLFVDGMLGVVAHSDTIQWLYTLCASLSRLVVKTALKLLLVFVEYSENNAPLFIRAVNSVASTTGAPPWANLVSILEEKNGADPELLVYTVTLINKTLAALPDQDSFYDVTDALEQQGMEALVQRHLGTAGTDVDLRTQLVLYENALKLEDGDIEEAPGAGGRRERRKPSSEEGKRSRRSLEGGGCPARAPEPGPTGPASPVGPTSSTGPALLTGPASSPVGPPSGLQASVNLFPTISVAPSADTSSERSIYKARFLENVAAAETEKQVALAQGRAETLAGAMPNEAGGHPDARQLWDSPETAPAARTPQSPAPCVLLRAQRSLAPEPKEPLIPASPKAEPIWELPTRAPRLSIGDLDFSDLGEDEDQDMLNVESVEAGKDIPAPSPPLPLLSGVPPPPPLPPPPPIKGPFPPPPPLPLAAPLPHSVPDSSALPTKRKTVKLFWRELKLAGGHGVSASRFGPCATLWASLDPVSVDTARLEHLFESRAKEVLPSKKAGEGRRTMTTVLDPKRSNAINIGLTTLPPVHVIKAALLNFDEFAVSKDGIEKLLTMMPTEEERQKIEEAQLANPDIPLGPAENFLMTLASIGGLAARLQLWAFKLDYDSMEREIAEPLFDLKVGMEQLVQNATFRCILATLLAVGNFLNGSQSSGFELSYLEKVSEVKDTVRRQSLLHHLCSLVLQTRPESSDLYSEIPALTRCAKVDFEQLTENLGQLERRSRAAEESLRSLAKHELAPALRARLTHFLDQCARRVAMLRIVHRRVCNRFHAFLLYLGYTPQAAREVRIMQFCHTLREFALEYRTCRERVLQQQQKQATYRERNKTRGRMITETEKFSGVAGEAPSNPSVPVAVSSGPGRGDADSHASMKSLLTSRPEDTTHNRRSRGMVQSSSPIMPTVGPSTASPEEPPGSSLPSDTSDEIMDLLVQSVTKSSPRALAARERKRSRGNRKSLRRTLKSGLGDDLVQALGLSKGPGLEV [FHOD1]”, which “solubility in G1/S (log2)” value [1] is on record?
Answer: 0.185

Question: And the “solubility change mitosis (log2)” value [2]?
Answer: -0.13

Question: And the melting temperature ([3]; cell cycle stage: G1/S)?
Answer: 48 °C

Question: What about the melting temperature ([3]; cell cycle stage: mitosis) of the same sequence?
Answer: 48.1 °C

Question: And the thermal stability score [4, 5]?
Answer: 1.05

Question: What about the thermal stability score ([4]; cell cycle stage: mitosis) of the same sequence?
Answer: 2.72

Question: What does the source list for “MAGGPPKALPSTGPHSLRDMPHPLAGSSSEEAVGGDSTPSPDLLMARSFGDKDLILPNGGTPAGTSSPASSSSLLNRLQLDDDIDGETRDLFVIVDDPKKHVCTMETYITYRITTKSTRVEFDLPEYSVRRRYQDFDWLRSKLEESQPTHLIPPLPEKFVVKGVVDRFSEEFVETRRKALDKFLKRITDHPVLSFNEHFNIFLTAKDLNAYKKQGIALLTRMGESVKHVTGGYKLRTRPLEFAAIGDYLDTFALKLGTIDRIAQRIIKEEIEYLVELREYGPVYSTWSALEGELAEPLEGVSACIGNCSTALEELTDDMTEDFLPVLREYILYSDSMKSVLKKRDQVQAEYEAKLEAVALRKEDRPKVPADVEKCQDRMECFNADLKADMERWQNNKRQDFRQLLMGMADKNIQYYEKCLMAWESIIPLLQEKQEAK [SNX30]”?
Answer: solubility in G1/S (log2) [1]: 0.262; solubility change mitosis (log2) [2]: -0.31; melting temperature ([3]; cell cycle stage: G1/S): 50.1 °C; melting temperature ([3]; cell cycle stage: mitosis): 50.7 °C; thermal stability score [4, 5]: 0.333; thermal stability score ([4]; cell cycle stage: mitosis): 1.76

Question: Which “solubility in G1/S (log2)” value [1] does the source give for “MAGKSSLFKVILLGDGGVGKSSLMNRYVTNKFDTQLFHTIGVEFLNKDLEVDGHFVTMQIWDTAGQERFRSLRTPFYRGSDCCLLTFSVDDSQSFQNLSNWKKEFIYYADVKEPESFPFVILGNKIDISERQVSTEEAQAWCRDNGDYPYFETSAKDATNVAAAFEEAVRRVLATEDRSDHLIQTDTVNLHRKPKPSSSCC [RAB9A]” here?
Answer: -0.0893

Question: And the “solubility change mitosis (log2)” value [2]?
Answer: -0.207

Question: What about the melting temperature ([3]; cell cycle stage: G1/S) of the same sequence?
Answer: 54.3 °C

Question: And the melting temperature ([3]; cell cycle stage: mitosis)?
Answer: 54.2 °C

Question: What about the thermal stability score [4, 5] of the same sequence?
Answer: -1.81

Question: What about the thermal stability score ([4]; cell cycle stage: mitosis) of the same sequence?
Answer: -3.52

Question: “MAGLPRRIIKETQRLLAEPVPGIKAEPDESNARYFHVVIAGPQDSPFEGGTFKLELFLPEEYPMAAPKVRFMTKIYHPNVDKLGRICLDILKDKWSPALQIRTVLLSIQALLSAPNPDDPLANDVAEQWKTNEAQAIETARAWTRLYAMNNI [UBE2N]” was tested. Which “solubility in G1/S (log2)” value [1] did it give?
Answer: 0.641

Question: What about the “solubility change mitosis (log2)” value [2] of the same sequence?
Answer: 0.111

Question: And the melting temperature ([3]; cell cycle stage: G1/S)?
Answer: 52.1 °C

Question: And the melting temperature ([3]; cell cycle stage: mitosis)?
Answer: 52.1 °C

Question: And the thermal stability score [4, 5]?
Answer: -0.982

Question: And the thermal stability score ([4]; cell cycle stage: mitosis)?
Answer: -0.49
